The source of these data is the nanobody polyreactivity screen of Harvey et al. (2022).

The data set can be described thus: yeast display, Sf9 membrane polyspecificity reagent, FACS + sequencing; frameworks hold sequencing errors. An outline of the steps:
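A nanobody's polyreactivity label depends on the gate it was sorted from. Yeast display cells were stained with 10% biotinylated, detergent-solubilized Sf9 membrane reagent for 1 hour at 4 °C, enriched on streptavidin microbeads and sorted by FACS. The low and high (top ~1%) gates were set on anti-HA fluorescence for expression and streptavidin fluorescence for reagent binding.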
On to “QVQLVESGGGLVQAGGSLRLSCAASGFTLSYYAMGWYRQAPGKERELVASISAIGGITYYADSVKGRFTISRDNAKNTVYLQMNSLKPEDTAVYYCARQGRRYRRFDSWGQGTQVTVSS”, for which the “polyreactivity (PSR sort gate)” value is “high polyreactivity”.
On to “QVQLVESGGGLVQAGGSLRLSCAASGFTLTLYAMGCYRQSPGKERELVAAISGNGGRTYYADSVKGRFTISRDNAKNTVYLQMNSLKPEDTAVYYCAARYTRSPSDYSTRKFGYGYWGQGTQVTVSS”, for which the “polyreactivity (PSR sort gate)” value was “high polyreactivity”.
The same measure for “QVQLVESGGGLVQAGGSLRLSCAASGFTLTLYAMGWYRQAPGKERELVARITSSGGITYYADSVKGRFTISRDNAKNTVYLQMISLKPEDTAVYYCAKEALIGPSRIILGEMGYWGQGTQVTVSS”: “low polyreactivity”.
With “QVQLVESGGGLVQAGGSLRLSCAASGFTLTRNAMGWYRQAPGKERELVAAISWSGGTTYYADSVKGRFTISRDNAKNTVYLQMNSLKPEDTAVYYCAADYTLQRQTSFLDSEFYWGQGTQVTVSS”, the “polyreactivity (PSR sort gate)” value was “high polyreactivity”.
To “QVQLVESGGGLVQAGGSLRLSCAASGFTLVKYVMVWYMQAPGKEREFVATIRRRGGNTYYADSVKGRFTISRDNAKNTVYLQMNSLKPEDTAVYYCAAKKRSDLRTGDMEYWGQGTQVTVSS” belongs “high polyreactivity”.
The same measure for “QVQLVESGGGLVQAGGSLRLSCAASGFTLVLNAMGWYRQAPGKERELVAAIRRSAGSTYYADSVKGRFTISRDNAKNTVYLQMNSLKPEDTAVYYCAAGFLWAKYAYGHWGQGTQVTVSS”: “low polyreactivity”; for “QVQLVESGGGLVQAGGSLRLSCAASGFTLVLNAMGWYRQAPGKEREVVAAIRRSAGSTYYADSVKGRFTISRDNAKNTVYLQMNSLKPEDTAVYYCAAGFLWAKYAYGHWGQGTQVTVSS”: “low polyreactivity”.
The same measure for “QVQLVESGGGLVQAGGSLRLSCAASGFTLWLNAMGWYRRAPGKERELVAAITTSDDGTYYADSVKGRFTISRDNAKNTVYLQMNSLKPEDTAVYYCAADYYSVLYDYWGQGTQVTVSS”: “low polyreactivity”; for “QVQLVESGGGLVQAGGSLRLSCAASGFTLWYNTMGWYRQAPGKERELVASITIGDSTSYADSVKGRFTISRDNAKNTVYLQMNSLKPEDTAVYYCNAEIALNSYDTYHRAADGYNYWGQGTQVTVSS”: “low polyreactivity”; for “QVQLVESGGGLVQAGGSLRLSCAASGFTLYDNAMGWYRQAPWKERELVAAISWSGGSTYYADSVKGRFTISRDNAKNTVYLQMNRLKPEDTAVYYCATDFVSYAEGRMEYWGLGTQVTVSS”: “low polyreactivity”.
For the sequence “QVQLVESGGGLVQAGGSLRLSCAASGFTLYRNAMGWYRQAPGKERELVAAITSSGGGTYYADSVKGRFTISRDNAKNTVYLQMNSLKPEDTAVYYCAARSTSDREGNYWGQGTQVTVSS”, the “polyreactivity (PSR sort gate)” value was “low polyreactivity”.
Consider “QVQLVESGGGLVQAGGSLRLSCAASGFTLYRNAMGWYRQAPGKERELVAAITSSGGRTYYADSVKGRFTISRDNAKYTVYLQMNSLKPEVTAVYSCAADFGLGYYYWGQGTQVTVSS”, for which the “polyreactivity (PSR sort gate)” value is listed as “high polyreactivity”.
“QVQLVESGGGLVQAGGSLRLSCAASGFTLYRYAMAWYRQAPGKERELVAAISWSGGSTYYADSVKGRFTISRDNAKNTVYLQMNSLKPEDTAVYYCAATGYVTRSKRYDYWGQGTQVTVSS”: the “polyreactivity (PSR sort gate)” value is “high polyreactivity”.
To “QVQLVESGGGLVQAGGSLRLSCAASGFTLYYSAMGWYRQAPGKERELVAAISYSGGSTYYADSVKGRFTISRDYAKNTVYLHMYSLKPEDTAVSYCAVQFSYGFTGGPIYDYWGQGTQVTVSS” belongs “low polyreactivity”; to “QVQLVESGGGLVQAGGSLRLSCAASGFTLYYYMGWYRQAPGKERELVARIRATGGSTYYADSVKGRFTISRDNAKNTVDLQMNSLKPEDTAVYYCAAKGVPRRYRPDMYYWGQGTQVTVSS”, “high polyreactivity”; to “QVQLVESGGGLVQAGGSLRLSCAASGFTNAMGWYRQAPGKERELVAAISYSGDSTNYADSVKGRFTISRDNAKNTVYLQINSVKPEDTAVYYCNASSPYDYDWGQGTHVTVSS”, “low polyreactivity”.
Take “QVQLVESGGGLVQAGGSLRLSCAASGFTNLNSMGRYRQAPGKERELVADISASGGTTYYADSVKGRFTISLDNAKNTVYLQMNSLKPEDTAVYYCAARRYYPRWYYWIRFDYWGQGTQVTVSS”: the “polyreactivity (PSR sort gate)” value was “high polyreactivity”.
“QVQLVESGGGLVQAGGSLRLSCAASGFTNSMGWYRQAPGKERELVAAISYSGDSTNYADSVKGRFTISRDNAKNTVYLQMNSLKPQDTAVYYCNASSPYDYDWGQGTQVTVSS”: the “polyreactivity (PSR sort gate)” value was “low polyreactivity”.
Turning to “QVQLVESGGGLVQAGGSLRLSCAASGFTPGNVMGWYRQAPGKERELVAAISWSGDSTYYADSVKGRFTISRDNAKNTVYLQMNSLKPEDTAVYYCAADGVPGRAVDYEYWGQGTQVTVSS”, the “polyreactivity (PSR sort gate)” value was “high polyreactivity”.
“QVQLVESGGGLVQAGGSLRLSCAASGFTSGNYAMGWYRQAPGKEREFVAAITWGDGSTFYADSVKGRFTISRDNAKNTVYLQMNSLKPEDTAVYYCAADYSRTYRAYDYWGQGTQVTVSS”: the “polyreactivity (PSR sort gate)” value is recorded as “low polyreactivity”.
Turning to “QVQLVESGGGLVQAGGSLRLSCAASGFTSGYNLMGWYRQAPGKERELVAAISWRGTSTYYADSVKGRFTISRDNAKNTVYLQMNSLKPEDTAVYYCAARQRWYWRGYDYWGQGTQVTVSS”, the “polyreactivity (PSR sort gate)” value is reported as “high polyreactivity”.
The same measure for “QVQLVESGGGLVQAGGSLRLSCAASGFTSGYYAMGWYRQAPGKERELVAAISFSGDDTYYADSVKGRFTISRDNAKNTVYLQMNCLKPEVTAVYYCAAEYDLYFLDQGYWYVAFDYWGQGTQVTVSS”: “high polyreactivity”.
The same measure for “QVQLVESGGGLVQAGGSLRLSCAASGFTSGYYAMGWYRQAPGKESELVAAIDWSDGGTYYADSVKGRFTISRDNAKNTVYLQMNSLKPEDTAVYYCATVRYVQITRDDYWGQGTQVTVSS”: “low polyreactivity”; for “QVQLVESGGGLVQAGGSLRLSCAASGFTSKTNAMGWYRQAPGKERELVAGITRTGGSTYYADSVKGRFTISRDNAKNTVYLQMNSLKPEDTAVYYCAREYGDGYEYWGQGTQVTVSS”: “low polyreactivity”; for “QVQLVESGGGLVQAGGSLRLSCAASGFTSRKNAMGWYRQAPGKERELVAAITQSSGRTYYADSVKGRFTISRDNAKNTVYLQMNSLKPEDTAVYYCAARRGGEDDYWGQGTQGTVSS”: “low polyreactivity”.
Take “QVQLVESGGGLVQAGGSLRLSCAASGFTSSAYAMGWYRQEPGKESELVAVISRSGGRTYYADSVKGRFTISRDNAKNTVYLQMNSLKPEDTADYYCAAEYGVYNIHFPGYDYWGQGTQVTVSS”: the “polyreactivity (PSR sort gate)” value is listed as “high polyreactivity”.
To “QVQLVESGGGLVQAGGSLRLSCAASGFTSWQYAMGWYRQAPGKERELVAAISVSGASTYYADSVKGRFTISRDNAKNTVYLQMNSLKPEDTAVYYCAAAYVRYPTTRYYYWGQGTQVTVSS” belongs “high polyreactivity”.
For the sequence “QVQLVESGGGLVQAGGSLRLSCAASGFTSYRYAMGWYRQAPGKERELVAAISSSGRTDYADSVKGRFTISRDNAKNSVYLQMNSLKPEDTAVYYCAARTYSYVGRYKFDYWGQGTQVTVSS”, the “polyreactivity (PSR sort gate)” value is reported as “high polyreactivity”.
The same measure for “QVQLVESGGGLVQAGGSLRLSCAASGFTVEKNAMGWYRPAPGNERELVAAITKSGGSTYYADSVKGRFTISRDNAKNTVYLQMNSLKPEDTAVYFCNAPPWSRYYYDLLRHDYWGQGTQVTVSS”: “low polyreactivity”; for “QVQLVESGGGLVQAGGSLRLSCAASGFTVYGYTMGWYREAPGKERELVAAITSGDSTYYADSVKGRVTISRDIAQNTDYLQMHTLKPEETAVYYCATDWDVEYAWTEYYYWGQGTQVTVSS”: “high polyreactivity”.
The same measure for “QVQLVESGGGLVQAGGSLRLSCAASGFTWSYAMGWYRQAPGKERELVATISDGVSTNYADSVKGRFTISRDNAKNTVYLQMNSLKPEDTAVYYCAARYTSWGMGYWGQGTQVTVSS”: “low polyreactivity”; for “QVQLVESGGGLVQAGGSLRLSCAASGFTYIFYAMGWYRQAPGKERELVAAITWDGDRTYYADSVKGRFTISRDNAKNTVYLQMNSLKPEDTAVYYCNADEGGNYREDYWGQGTQVTVSS”: “low polyreactivity”; for “QVQLVESGGGLVQAGGSLRLSCAASGFTYRSYTMGWYRQAPGKERELVAAITSRGTSTYYADSVKGRFTISRDNAKNTVYLQMNSLKPEDTALYYCNAARPGKNYDSWGQGTQVTVSS”: “high polyreactivity”.
The same measure for “QVQLVESGGGLVQAGGSLRLSCAASGFTYSFYTMGWSRQAPGKERELVAAISRNGGSTYYADSVKGRFTISRDNAKNTVYLQMNSLKPEDTAVYYCAARARGGDWGSGDYWGQGTQVTVSS”: “high polyreactivity”; for “QVQLVESGGGLVQAGGSLRLSCAASGFTYTYAMGWYIQAPGKERELVAAISKSGGRTYYADSVKGRFTISRDNAKNTVYLQMNSLKPEDTAVYYCAADYSSTYDYWGQGTQVTVSS”: “high polyreactivity”.
On to “QVQLVESGGGLVQAGGSLRLSCAASGFTYVVYDMGWYRQAPGKERELLAVITNSGGSTYYADSVKGRFTISRDNAKNTVYLQMYSLKPEDTAVYYCATRTPVWVNTESDYWGQGTQVTVSS”, for which the “polyreactivity (PSR sort gate)” value is on record as “low polyreactivity”.
“QVQLVESGGGLVQAGGSLRLSCAASGFTYYYYAMGWSRQAPGKVRELVAAITYSGGSTYYADSVKGRFTISRDNAKNTVYLLMNSLKPEDTAVYYCNAVVGRWFPFNLSDYWGQGTQVTVSS”: the “polyreactivity (PSR sort gate)” value is reported as “low polyreactivity”.
To “QVQLVESGGGLVQAGGSLRLSCAASGFVWNAMGWYRQAPGKERELVAAINWRGGSTNYADSVKGRFTISRDNAKNTVYLQMNSLKPEDTAVYYCAAYFFHYHFYQAAYDYWGQGTQVTVSS” belongs “low polyreactivity”; to “QVQLVESGGGLVQAGGSLRLSCAASGGICGYYAMGWYRQAPGKERELVAAISWTGGSTYYADSVKGRFTISRDNAKNTVYLQMNSLKPEDTAVYYCAASDSFGYDYWGQGTQVTVSS”, “high polyreactivity”; to “QVQLVESGGGLVQAGGSLRLSCAASGGIFAHYVMGWYRQAPGKERELVAAISASGGSTYYADSVKGRFTISRDNAKNTVYLQMNSLKPEDTAVYYCAAYYLAWYAYRYKTVGSAMDHWGQGTQVTVSS”, “low polyreactivity”.
Regarding “QVQLVESGGGLVQAGGSLRLSCAASGGIFAPYVMGWYRQAPGKERELVAGITWSGGSTYYADSVKGRFTISRDNAKITVYLQMNSLKPEDTAVYYCAAEWYYSVIWLYEYWGQVTQVTVSS”, the “polyreactivity (PSR sort gate)” value is recorded as “high polyreactivity”.
